Molecular target: T1, Human Integrin αVβ3 (human, UniProt P06756 31-992; P05106 27-718)
T1 construct: Commercial heterodimer from ACROBiosystems; No catalogue number or construct limits are printed; also called Integrin aVß3; integrin (ITG)
Experiment: ELISA, CtsZ coated 200 ng/well, integrin αVβ3 titrated from 200 nM in 1/3 steps, detected with biotinylated anti-integrin alpha V antibody and streptavidin-HRP
Method: After coating 1×PBS (pH 7.4) containing 200 ng of CtsZ in each well of a 96-well high-binding plate at 4° C. for 16 hours, followed by washing twice with a washing buffer (20 mM Tris-HCl, 150 mM NaCl, 1 mM MnCl₂, 0.05% Tween-20), blocking was performed at room temperature for 2 hours using a blocking buffer (washing buffer containing 3% BSA). After washing twice with a washing buffer, binding was performed at room temperature for 2 hours using a dilution buffer (washing buffer containing 0.5% BSA) containing 200 nM, ⅓ eq. integrin αVβ3. After washing 4 times with a washing buffer, biotinylated anti-human integrin alpha V antibody (diluted to 1:100 with dilution buffer) was treated at room temperature for 1 hour. After washing 4 times with a washing buffer, HRP-conjugated streptavidin was treated at room temperature for 1 hour. After washing 4 times with a washing buffer, followed by addition of ultra TBM matrix, reaction was performed for 2 minutes and the reaction was stopped by adding 2 M H₂SO₄. KD values were calculated from the absorbance at 450 nm using the Prism7 software.
Because CtsZ has an RGD motif binding to integrin, particularly integrin αVβ3, in the pro-region, it was investigated whether the purified CtsZ was in active form by measuring binding affinity for integrin αVβ3 purchased from ACROBiosystems.

T1 sequence (P06756 31-992 limits assumed, chain 1 of 2): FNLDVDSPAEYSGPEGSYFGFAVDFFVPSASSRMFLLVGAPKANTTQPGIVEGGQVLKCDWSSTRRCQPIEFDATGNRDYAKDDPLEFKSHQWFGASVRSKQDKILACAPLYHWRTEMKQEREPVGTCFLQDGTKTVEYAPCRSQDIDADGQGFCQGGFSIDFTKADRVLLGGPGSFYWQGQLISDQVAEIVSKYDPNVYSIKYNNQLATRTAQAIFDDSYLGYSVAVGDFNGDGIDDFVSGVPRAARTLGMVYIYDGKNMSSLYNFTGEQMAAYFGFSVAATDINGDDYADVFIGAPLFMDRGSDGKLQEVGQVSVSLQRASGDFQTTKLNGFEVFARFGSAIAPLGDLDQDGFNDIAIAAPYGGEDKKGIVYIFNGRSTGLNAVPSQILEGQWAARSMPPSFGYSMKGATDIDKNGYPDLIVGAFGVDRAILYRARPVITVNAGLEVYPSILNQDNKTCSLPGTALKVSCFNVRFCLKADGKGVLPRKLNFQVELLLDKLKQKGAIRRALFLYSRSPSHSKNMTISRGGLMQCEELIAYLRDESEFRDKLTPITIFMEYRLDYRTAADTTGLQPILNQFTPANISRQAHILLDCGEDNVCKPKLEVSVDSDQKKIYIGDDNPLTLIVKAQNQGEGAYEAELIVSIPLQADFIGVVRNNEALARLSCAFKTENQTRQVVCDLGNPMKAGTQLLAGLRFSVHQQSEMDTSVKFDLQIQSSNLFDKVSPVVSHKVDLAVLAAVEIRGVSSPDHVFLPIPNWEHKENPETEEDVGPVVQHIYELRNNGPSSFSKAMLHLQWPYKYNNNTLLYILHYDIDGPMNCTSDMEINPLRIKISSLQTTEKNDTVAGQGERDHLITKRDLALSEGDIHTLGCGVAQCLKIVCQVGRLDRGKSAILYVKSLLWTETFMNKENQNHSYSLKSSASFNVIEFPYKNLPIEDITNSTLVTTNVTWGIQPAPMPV
T1 sequence (P05106 27-718 limits assumed, chain 2 of 2): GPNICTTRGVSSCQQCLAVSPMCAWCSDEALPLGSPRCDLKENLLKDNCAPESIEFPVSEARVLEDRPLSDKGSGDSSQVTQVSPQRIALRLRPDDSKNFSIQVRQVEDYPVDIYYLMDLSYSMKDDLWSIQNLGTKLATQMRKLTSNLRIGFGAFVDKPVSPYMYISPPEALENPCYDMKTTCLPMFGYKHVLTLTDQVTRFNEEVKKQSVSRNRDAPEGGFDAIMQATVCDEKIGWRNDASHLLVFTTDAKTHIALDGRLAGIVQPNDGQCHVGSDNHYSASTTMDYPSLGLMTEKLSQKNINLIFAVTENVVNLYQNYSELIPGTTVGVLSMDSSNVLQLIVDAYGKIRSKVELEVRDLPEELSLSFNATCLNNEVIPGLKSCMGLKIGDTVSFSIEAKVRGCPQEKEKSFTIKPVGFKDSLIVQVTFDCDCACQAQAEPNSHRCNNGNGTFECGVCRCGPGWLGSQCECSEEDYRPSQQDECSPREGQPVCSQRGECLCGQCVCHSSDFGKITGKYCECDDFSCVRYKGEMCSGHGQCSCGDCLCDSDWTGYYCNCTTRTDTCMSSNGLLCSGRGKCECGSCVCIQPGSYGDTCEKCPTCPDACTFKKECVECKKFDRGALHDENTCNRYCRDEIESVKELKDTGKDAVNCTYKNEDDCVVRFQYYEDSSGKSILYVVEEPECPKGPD

B1: recombinant human cathepsin Z with C-terminal 6x-His tag (enzyme)
chain: not shown
notes: Secreted from Expi-293F cells and purified on Ni-NTA; Glycosylated, about 37 kDa on SDS-PAGE against 33 kDa predicted; also called CtsZ; purified CtsZ
Kd: ~137 nM
